Laboratory results published in US20240218057A1 (ROCKEFELLER UNIVERSITY, published 2024).

B1: C868 (antibody, V domains shown)
VH: QVQLQESGPRLVKPSETLSLTCIVSGGSVSSNNFYWSWIRQPPGKRLEWIGYFYNSGSSKYNPSLKSRVTISGDTSKNQFSLKLSSVTAADTAVYYCARETFFYDRTGHYKSDGFDVWGQGTMVTVSS
VL: DIQMTQSPSTLSASVGDRVTISCRASQNISSWLAWYQQEAGKAPKLLIYKASSLESGVPSRFSGSGSGTEFTLTISSLQPGDFATYYCQQYNIYSYTFGQGTKLEIK
notes: IgG; V domains only
B2: C887 (antibody, V domains shown)
VH: EVQLVESGGDLVQPGGSLRLSCAASGFTFTTYSMSWVRQAPGKGLEWISYINSGSANIHYADSVKGRFTVSRDNAKNSLYLQMNSLRDEDTAVYYCARGDCLSSSCYSLDYWGQGALVTVSS
VL: DIQMTQSPSSLSASVGDRVTITCRASQSITSYLSWYLQKPGEAPKLLIYAASILQSGVPSRFGGNGSGTDFTLTISSLQPEDFATFYCQQTYRSPLTFGGGTKVEIK
notes: IgG; V domains only
B3: C886 (antibody, V domains shown)
VH: EVQLVESGGDLVQPGGSLRLSCAASGFSVTTNAMAWVRQAPGKGLEWISYINIGSANIQYADSVKGRFTISRDNAKNSLYLQMNSLRDEDTAVYYCARGDCTSSSCYSLDYWGQGALVTVSS
VL: DIQMTQSPSSLSASVGDRVSITCRASQTINTHLSWYLQKPGEAPRLLVYAASTLHSGVPSRFSGSGSGTDFTLTISSLQPEDFATFYCQQTYRFPLTFGGGTKVEIK
notes: IgG; V domains only
B4: C875 (antibody, V domains shown)
VH: QVQLVQSGAEVKQPGASVKISCKASGYIFTTYFMHWVRQAPGQGLEWLGIIDPTISGASLAQKFQGRVTMTSDTSTSTVYMEMRSLRSDDTALYFCARASTSTSSWSEALSLGSWGQGTLVTVSS
VL: QSVLTQPPSVSGAPGQGVSISCTGSSSNVGAGYGVHWYQQLPGTTPKLLIYDNNSRPAGVPDRFSGSKSGTSASLAIAGLQPEDEADYYCQSWDNGLSGSGVVFGGGTKVTVL
notes: IgG; V domains only
B5: C894 (antibody, V domains shown)
VH: EVQLVQSGAEVKKPGESLRISCKGSGYSFTGYWISWVRQMPGKGLEWMGRIDPSDSYTNYSPSFEGHVTFSADTALSTAYLQWSSLQASDTAIYFCGRIAPPGRGSYYPTQNYMDVWGKGTTVTVSS
VL: EIVLTQSPGTLSLSPGERATLSCTADQSVPNSYLAWYQHKPGQAPRLLIYGASSRATGIPDRFSGSGSGIDFTLTISRLEPEDFAVYYCQQYGSLLLTFGGGTKVEIK
notes: IgG; V domains only
B6: C865 (antibody, V domains shown)
VH: EVQLLESGGGLVQPGGSLRLSCVASRFIFSRYALSWVRQAPGKGLEWVSGISGSGHSTHYADSVTGRFTISRDNSKNTVYLQMSSLRAEDTAVYYCAKGPRSNYDYFESWGQGTLVTVSS
VL: DIQLTQSPSSLSASVGDRVTITCRASQGISSALAWYQQRPGKAPRLLIYDASSLDSGVPSRFSGSGSGTDFTLTISSLQSEDFATYYCQQFINNPLTFGGGTKVEIK
notes: IgG; V domains only
B7: C888 (antibody, V domains shown)
VH: EVQLVESGGGLVQPGGSLRLSCAASGFTVSSNYMSWVRQAPGKGLEWVSVIYSGGSAYYADSVKGRFTISRDNSKNTLYLQMNSLRAEDTAVYYCARDLRDQDGYSYGAFDYWGQGTLVTVSS
VL: QSALTQPASVSGSPGQSITISCTGTSSDVGGYNYVSWYQQHPGKAPKLMIYDVSNRPSGVSNRFSGSKSGNTASLTISGLQAEDEADYYCSSYTSSSSWVFGGGTKLTVL
notes: IgG; V domains only
B8: C862 (antibody, V domains shown)
VH: QVQLQESGPGLVKPSQTLSLTCTVSGASISSSEHYWSWIRQPPGKGLEWIGYISYSGGTYQNPSLQSRMTLSMDASKNQFSLKLSSVTAADTAVYFCARLNTMIVMINGVFDVWGQGTMVTVSS
VL: DIQMTQSPSSLSAFVGDRVTITCQASQDINKYVNWYQQKPGKAPKLLIYDASNLQTGVPSRFSGSGSGTHFTFTISSLQPEDFATYYCQEYDNLFSISFGQGTRLEIK
notes: IgG; V domains only
B9: C866 (antibody, V domains shown)
VH: EVQLVESGGGLVQPGRSLRLSCVASGFEFEDYGMHWVRQVPGKGLEWVSGISWNSASVGYADSVRGRFTISRDNAKNSLYLQMNSLRAEDTALYYCGKQINEWSHFLDYWGQGTLVTVSS
VL: DIQLTQSPSSVSASVGDRVTITCRASQGISNWLAWYQKKPGKAPKLLIYATSSLQSGVPSRFSGSGSETDFTLTIRSLQPEDFATYYCQQANSYPLTFGQGTKLEIK
notes: IgG; V domains only
B10: C885 (antibody, V domains shown)
VH: QVQLQESGPGLVKPSQTLSLTCAVSGDSIRSGGYYWSWVRQHPGRGLEWIGYIYFSGTTYYNPSLKSRVTISVDTSEKQFSLKLTSVTDADTAVYFCARVKGWLRGYFDYWGQGALVTVSS
VL: NFMLTQSHSVSESPGKTVTISCTGSSGNIVNNYVQWYQQRPGSAPIIVIYEDTQRPSGVPDRFSGSIDTSSNSASLTISGLKTEDEADYYCQSYDSGSHVVFGGGTKLTV
notes: IgG; V domains only
B11: C879 (antibody, V domains shown)
VH: QVQLQESGPGLVKPSQTLSLTCGVSGDSISSGGHFWSWVRQHPGTGLEWIAYSPFSGTTYYNPSLKSRVTLSVDTSKNQFFLSLTSVTDADTAVYFCARVKGWLRGYFDHWGQGVLVTVSS
VL: NFMLTQPHSVSESPGKTVTISCTASSGNIVNNYVQWYQQRPGSAPIIVIYEDAQRPSGVPDRFSGSIDTSSNSASLTISGLKTEDEADYYCQSYEIDSHVVFGGGTRLTV
notes: IgG; V domains only
B12: C870 (antibody, V domains shown)
VH: EVQLVESGGGLVQPGKSLRLSCAGSGFAFSSYHMNWVRQAPGKGLEWVAYISSGSSTIHYADSVKGRFTISRDNAKNSFYLQMNSLRAEDTALYYCARAIVGTKGYMDVWGKGTTVTVSS
VL: QSALTQPASVSGSPGQSVTISCTGTRSDVGSYDLVSWYQLHADKAPKLIIYEVTSRPSGISTRFSGSKSGNTASLTISGLQAEDEADYYCCSYAGTTWLFGGGTRLTVL
notes: IgG; V domains only
B13: C881 (antibody, V domains shown)
VH: EVQLVESGGGLIQPGGSLRLSCAVSGVAVSTNYMSWVRQAPGQGLEWVSTIYSGDTTYYSDSVKGRFTISRDNSKNTFYLQMNSLRVPDTAVYYCARLGGVFNGFNGSFDYWGQGTLVTVS
VL: QSALTQPASVSGSPGQSITISCIGTSSDFENYNLVSWYQQHPGKAPKVMIYEDTKRPSGVSNRFSGSKSANTASLTISGLQAEDEAEYYCCSYAGASTWVFGGGTRVTVV
notes: IgG; V domains only
B14: C882 (antibody, V domains shown)
VH: QVQLVESGGGVVQPGRSLRLSCAASGFTFIRYNMHWVRQAPGKGLEWVAVIWYDGSNKYYADSVKGRFTISRDNSKNTLYLQMNSLRAEDTAVYYCARDPMIVVVEMDYWGQGTLVTVSS
VL: DVVMTQSPLSLPVTLGQPASISCNSSQSLVHTDGNTYLNWFQQRPGQSPRRLIYKVSNRDSGVPDRFSGSGSDTDFTLQISRVEADDVGVYYCMQGSHWPYTFGQGTKLEIK
notes: IgG; V domains only
B15: C869 (antibody, V domains shown)
VH: QVQLVESGGGVVQPGTSLRLSCAASGFTFSSFGMNWVRQAPGKGLEWVAVIFFDGSKTYYADSVKGRFTISRDNSKNTLYLQMNSLRTEDTAVYYCAKGQLRLGEFDDYWGQGTLVTVSS
VL: DIQMTQSPSSLSASVGDRVTITCRASQDIRDDLNWYQHKPGKAPKLLIYTASSLQSGVPSRFSGSGSGTDFTLTISRLQPEDFASYYCLQDHNYPLTFGQGTKLEIK
notes: IgG; V domains only
B16: C880 (antibody, V domains shown)
VH: QVQLQQWGAGLLKPSETLSLTCAVYGGSFSDYYWSWIRQPPGKGLEWIGENNHSGKTNYNPSLENRVTISVDTSKNQFSLKLTSVTAADTAVYYCARESGSYGTFDYWGQGTLVTVSS
VL: EIVLTQSPGTLSLSPGERATLSCRASQSVSSAYLAWYQQKPGQAPRLLIYGASSRATGIPDRFSGSGSGTDFTLTISRLEPEDFAVYFCQQYAYTIWTFGQGTKVEIK
notes: IgG; V domains only
B17: C873 (antibody, V domains shown)
VH: QVQLVQSGPEVKKPGASVKVSCKASGYIFTDYSIHWVRQAPGQGLEWMGWINPNSGGGNSAQIFKGRATMARDTSITTVYMDLSGLRSDDTAVYYCARGPLFHKVVYESSSGFHDGLDFWGQGTMVTVSS
VL: QSALTQPASVSGSPGQSVTISCTGTSSDVGGYNFLSWYQQHPGKAPKLLLYEVINRPSGVSDRFSGSKSGNTASLTISGLQAEDEADYYCNSYTSNFTWVFGGGTHLTV
notes: IgG; V domains only
B18: C871 (antibody, V domains shown)
VH: EVQLVESGGGLIQTGGSLKLSCAASGFIVTNNYMSWVRQAPGKGLEWVSVIYSGGTTYYADSVKGRFTISRDISKNTLYLQMNSLKAEDTAVYYCAREGDVEGISDSWSGYSRDRYYFDHWGQGTLVTVSS
VL: QSALTQPASVSGSPGQSITISCTGTSSDVGGYNYVSWYQQHPGKAPKLMIYDVSNRPPTISNRFSGSKSGNTASLIISGLQPEDEADYYCSSFTSNNTRVFGTGTKVTVL
notes: IgG; V domains only
B19: C867 (antibody, V domains shown)
VH: QVQLQESGPGLVKSSETLSLTCTVSSGSVRSGGYYWSWIRHHPGKGLEWIGYIFYTGITYYNPSLKSRVIVSVDPSKNQFSLNLTSVTAADTAVYYCASTPYTNGGAFHIWGQGTMVTVSS
VL: QSALTQPPSASGSPGQSVTISCTGTSSDVGGHNYVSWYQQFPGKAPKLIIYDVNKRPSGVPDRFSGSKSANTASLTVSGLQAEDEADYHCSSYAGSNNWVFGGGTKLTVL
notes: IgG; V domains only
B20: C877 (antibody, V domains shown)
VH: EVQLVESGGGLIPPGGSLRLSCAASGIIVSRNYMSWVRQTPGKGLEWVSVMYAGGTKEYADSVKGRFIISRDDSNNTLYLQMNSLRAEDTAVYYCARDLIVLGVDVWGQGTTVTVSS
VL: DIQLTQSPSFLSASVGDRVTITCRASQGISNYLAWYQQKPGKAPKLLIYAASTLQSGVPSRFSGSGSGTEFTLTISSLQPEDFATYYCQLLNSYPMCSFGQGTKLEIK
notes: IgG; V domains only
B21: C884 (antibody, V domains shown)
VH: QVQLQQWGAGLLKPSETLSLTCVVYGGSFSAYYWSWIRQPPGKGLEWIGEINHSGSTNYKSSLQSRVTISVDTSKNQFSLKLSSVTAADTAVYYCARETGTYGTFDHWGQGTLVTVSS
VL: EIVLTQSPGTLSLSPGERATLSCRASQSVSSTYLAWYQQKPGQAPRLLIYGASSRATGIPDRFSGSGSGTDFTLTISRLEPEDFAVYYCQQYAFSVWTFGQGTKVEI
notes: IgG; V domains only
B22: C872 (antibody, V domains shown)
VH: EVQLVESGGGLIQPGGSLRLSCAASGFIVSNNYISWVRQAPGKGLEWVSVIYSGGTTYYADSVKGRFSISRDTSKNTVYLQINNLRAEDTAVYYCAREGDVDGNYGFWSGYSRDRYYFDYWGQGTLVTVSS
VL: QSALTQPASVSGSPGQSITISCTGTSSDVGAYNYVAWYQQHPGKAPKLMVYDVSKRPSGVSNRFSGSKSGNTASLTISGLQTEDEGDYYCCSYTTNTTRVFGTGTMLTVL
notes: IgG; V domains only

Each binder was assayed against T1, SARS-COV-2 RBD (SARS-COV-2, UniProt P0DTC2 319-539) (assay: ELISA, RBD coated).
T1 construct: also called WT RBD
Binder B1 has an EC50 of 3.39 ng/mL.
For B2, the EC50 was 3.2 ng/mL.
B3 was tested, and the EC50 was 2.48 ng/mL.
B4 showed an EC50 of 3.5 ng/mL.
In the case of B5, the EC50 is reported as 16.8 ng/mL.
Work on B6 yielded an EC50 of 2.14 ng/mL.
For B7, the EC50 was 1.44 ng/mL.
In the case of B8, the EC50 is reported as 2.14 ng/mL.
B9 showed an EC50 of 2 ng/mL.
B10 showed an EC50 of 7.45 ng/mL.
B11 gave an EC50 of 4.25 ng/mL.
For B12, the EC50 was 2.17 ng/mL.
For B13, the EC50 was 1.88 ng/mL.
With B14 the EC50 was 2.9 ng/mL.
Binder B15 has an EC50 of 3.14 ng/mL.
Binder B16 has an EC50 of 2.2 ng/mL.
Work on B17 yielded an EC50 of 4.05 ng/mL.
With B18 the EC50 was 1.52 ng/mL.
With B19 the EC50 was 2.71 ng/mL.
Work on B20 yielded an EC50 of 2.53 ng/mL.
For B21, the EC50 was 4.22 ng/mL.
Binder B22 has an EC50 of 2.19 ng/mL.
